From patent publication EP3386536A2 (dated 2018)

Target: T1, human FcγRIIIA F158 (human, UniProt P08637 17-208)
T1 construct: also called CD16a F158 variant
Test: BLI (Octet Red 96), FcγR on anti-his tag biosensor, conjugate in solution, avidity binding model

T1 sequence (P08637 17-208 limits assumed): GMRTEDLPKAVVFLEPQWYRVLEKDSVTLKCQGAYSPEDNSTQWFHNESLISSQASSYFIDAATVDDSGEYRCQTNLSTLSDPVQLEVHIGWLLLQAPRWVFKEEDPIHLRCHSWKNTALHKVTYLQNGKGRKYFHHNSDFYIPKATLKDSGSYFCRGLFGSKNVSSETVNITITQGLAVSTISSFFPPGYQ

fold change against the unconjugated SBT040-G2: ≤ 2 fold
B1: SBT040-G2 ATAC11 (antibody, human IgG2, kappa)
heavy: not shown
light: DIQMTQSPSSVSASVGDRVTITCRASQGIYSWLAWYQQKPGKAPNLLIYTASTLQSGVPSRFSGSGSGTDFTLTISSLQPEDFATYYCQQANIFPLTFGGGTKVEIKRTVAAPSVFIFPPSDEQLKSGTASVVCLLNNFYPREAKVQWKVDNALQSGNSQESVTEQDSKDSTYSLSSTLTLSKADYEKHKVYACEVTHQGLSSPVTKSFNRGEC
modifications: ATAC11 may also sit on light chain cysteines; sites not stated; ATAC11 (maleimide linker with gardiquimod) conjugated by cysteine-based bioconjugation; sites not stated; molar ratio about 4.0
notes: also called SBT-040-G2WT conjugated to ATAC11
